Measurements taken from patent US20190292245A1 (published 2019).

B1: Armanezumab (antibody, V domains shown)
VH: QVQLVQSGAEVKKPGASVKVSCKASGYTFTNHWMHWVRQAPGQGLEWMGAIDPGNSDTSYNQKFKGRVTMTRDTSTSTVYMELSSLRSEDTAVYYCARRDFFGGEYAVDYWGQGTLVTVSS
VL: DIVMTQSPLSLPVTPGEPASISCRSSQSLVHSNGNTYLHWYLQKPGQSPQLLIYKVSNRFSGVPDRFSGSGSGTDFTLKISRVEAEDVGVYYCSQSTHVPWTFGQGTKVEIKR
notes: Fully humanized IgG derived from 1C9; also called humanized 1C9
B2: mouse monoclonal antibody 1C9 (antibody, V domains shown)
VH: EVQLQQSGTVLARPGASVKMSCKTSGYTFTNHWMHWVKQRPGQGLEWIGAIDPGNSDTSYNQKFKGQAKLTAVTSASTAFMELSSLTNEDSAVYYCTRRDFFGGEYAVDYWGQGTSVTVSS
VL: DVVMTQTPLSLPVSLGDQASISCRSSQSLVHSNGNTYLHWYLQKPGQSPKLLIYKVSNRFSGVPDRFSGSGSGTDFTLKISRVEAEDLGVYFCSQSTHVPWTFGGGTKLEIK
notes: also called 1C9 mAb; 1C9 moAb

Key:
tauΔ2-18 [1] = target: T1, tauΔ2-18 (UniProt P10636-8 1-441); assay: blot
T1 construct: Deletion of residues 2-18; also called tau that lacks 2-18 domain; recombinant tauΔ2-18
T1 sequence (P10636 other isoform, or with tags, fused parts or gaps mutant limits assumed): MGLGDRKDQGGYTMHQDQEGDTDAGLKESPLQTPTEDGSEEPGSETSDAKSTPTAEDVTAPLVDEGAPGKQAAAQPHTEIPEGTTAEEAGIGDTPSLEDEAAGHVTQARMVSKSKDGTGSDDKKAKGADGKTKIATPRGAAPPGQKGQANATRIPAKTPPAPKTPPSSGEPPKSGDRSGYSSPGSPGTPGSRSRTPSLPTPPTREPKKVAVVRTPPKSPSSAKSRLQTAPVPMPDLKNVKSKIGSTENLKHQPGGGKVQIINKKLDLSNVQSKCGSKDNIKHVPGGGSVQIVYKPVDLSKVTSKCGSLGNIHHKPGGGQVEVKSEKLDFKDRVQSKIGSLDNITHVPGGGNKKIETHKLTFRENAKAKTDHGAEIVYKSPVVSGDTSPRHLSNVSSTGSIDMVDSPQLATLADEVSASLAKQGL

tauΔ2-18 [2] = target: T1, tauΔ2-18; assay: Western blot

Row | Binder | binding result (tauΔ2-18 [1]) | binding result (tauΔ2-18 [2])
1 | B1 | no binding | –
2 | B2 | – | no binding
